Consider eight proteins from publication PMC10017909, “Improving ethanol tolerance of ethyl carbamate hydrolase by diphasic high pressure molecular dynamic simulations” (AMB Express, 2023).

To fix the notation:
B1: EC hydrolase (ethyl carbamate hydrolase) (Lysinibacillus fusiformis; H68A/K70R/S325N) (protein)
chain: MTTDLHLKSVEELAPLLASKSLSPVELTKAILDFAEESQPKINSYMAFYREEALARAKEVEQEILQGAYRGMYHGIPMALKDNLYFKDKITTMSSKIHKDFVSDYDATVVEKLRDAGVIFTGKLSMHEYAWGITNNNPHYGPVRNPWDLDKIPGGSSGGSGAAVAAGASVASLGTDTAGSIRIPSSACGIVGLKPTHGRVSKYGCYPLAWSLDHIGPMTKTVKDAAGLLEVIAGFDHQDPTCVNVPVDNYEKQLTGNIKDLVIGINEEYFFNNVDADVEKAVRASIQSLVDSGAKVEVVRIPSLQYAEWAELVTSLSEAAAIHHNDLQKRPQDFGDDIRLLFELGELPSAVDYLQAQQVRRQIKQEFTEIFNKVDVLISPTLPIVASTIGDDFAELNGQKVDLIDNIIRFTGPSNLTGLPALSVPCGFKGNLPIGLQIIGPAFKEGRILNVGYAVEQANPQRNRKPNIFANI
B2: EC hydrolase (ethyl carbamate hydrolase) (Lysinibacillus fusiformis; K70R/S325N) (protein)
chain: MTTDLHLKSVEELAPLLASKSLSPVELTKAILDFAEESQPKINSYMAFYREEALARAKEVEQEILQGHYRGMYHGIPMALKDNLYFKDKITTMSSKIHKDFVSDYDATVVEKLRDAGVIFTGKLSMHEYAWGITNNNPHYGPVRNPWDLDKIPGGSSGGSGAAVAAGASVASLGTDTAGSIRIPSSACGIVGLKPTHGRVSKYGCYPLAWSLDHIGPMTKTVKDAAGLLEVIAGFDHQDPTCVNVPVDNYEKQLTGNIKDLVIGINEEYFFNNVDADVEKAVRASIQSLVDSGAKVEVVRIPSLQYAEWAELVTSLSEAAAIHHNDLQKRPQDFGDDIRLLFELGELPSAVDYLQAQQVRRQIKQEFTEIFNKVDVLISPTLPIVASTIGDDFAELNGQKVDLIDNIIRFTGPSNLTGLPALSVPCGFKGNLPIGLQIIGPAFKEGRILNVGYAVEQANPQRNRKPNIFANI
B3: EC hydrolase (ethyl carbamate hydrolase) (Lysinibacillus fusiformis; K70R) (protein)
chain: MTTDLHLKSVEELAPLLASKSLSPVELTKAILDFAEESQPKINSYMAFYREEALARAKEVEQEILQGHYRGMYHGIPMALKDNLYFKDKITTMSSKIHKDFVSDYDATVVEKLRDAGVIFTGKLSMHEYAWGITNNNPHYGPVRNPWDLDKIPGGSSGGSGAAVAAGASVASLGTDTAGSIRIPSSACGIVGLKPTHGRVSKYGCYPLAWSLDHIGPMTKTVKDAAGLLEVIAGFDHQDPTCVNVPVDNYEKQLTGNIKDLVIGINEEYFFNNVDADVEKAVRASIQSLVDSGAKVEVVRIPSLQYAEWAELVTSLSEAAAIHHSDLQKRPQDFGDDIRLLFELGELPSAVDYLQAQQVRRQIKQEFTEIFNKVDVLISPTLPIVASTIGDDFAELNGQKVDLIDNIIRFTGPSNLTGLPALSVPCGFKGNLPIGLQIIGPAFKEGRILNVGYAVEQANPQRNRKPNIFANI
B4: EC hydrolase (ethyl carbamate hydrolase) (Lysinibacillus fusiformis; H68A) (protein)
chain: MTTDLHLKSVEELAPLLASKSLSPVELTKAILDFAEESQPKINSYMAFYREEALARAKEVEQEILQGAYKGMYHGIPMALKDNLYFKDKITTMSSKIHKDFVSDYDATVVEKLRDAGVIFTGKLSMHEYAWGITNNNPHYGPVRNPWDLDKIPGGSSGGSGAAVAAGASVASLGTDTAGSIRIPSSACGIVGLKPTHGRVSKYGCYPLAWSLDHIGPMTKTVKDAAGLLEVIAGFDHQDPTCVNVPVDNYEKQLTGNIKDLVIGINEEYFFNNVDADVEKAVRASIQSLVDSGAKVEVVRIPSLQYAEWAELVTSLSEAAAIHHSDLQKRPQDFGDDIRLLFELGELPSAVDYLQAQQVRRQIKQEFTEIFNKVDVLISPTLPIVASTIGDDFAELNGQKVDLIDNIIRFTGPSNLTGLPALSVPCGFKGNLPIGLQIIGPAFKEGRILNVGYAVEQANPQRNRKPNIFANI
B5: EC hydrolase (ethyl carbamate hydrolase) (Lysinibacillus fusiformis; H68A/S325N) (protein)
chain: MTTDLHLKSVEELAPLLASKSLSPVELTKAILDFAEESQPKINSYMAFYREEALARAKEVEQEILQGAYKGMYHGIPMALKDNLYFKDKITTMSSKIHKDFVSDYDATVVEKLRDAGVIFTGKLSMHEYAWGITNNNPHYGPVRNPWDLDKIPGGSSGGSGAAVAAGASVASLGTDTAGSIRIPSSACGIVGLKPTHGRVSKYGCYPLAWSLDHIGPMTKTVKDAAGLLEVIAGFDHQDPTCVNVPVDNYEKQLTGNIKDLVIGINEEYFFNNVDADVEKAVRASIQSLVDSGAKVEVVRIPSLQYAEWAELVTSLSEAAAIHHNDLQKRPQDFGDDIRLLFELGELPSAVDYLQAQQVRRQIKQEFTEIFNKVDVLISPTLPIVASTIGDDFAELNGQKVDLIDNIIRFTGPSNLTGLPALSVPCGFKGNLPIGLQIIGPAFKEGRILNVGYAVEQANPQRNRKPNIFANI
B6: EC hydrolase (ethyl carbamate hydrolase) (Lysinibacillus fusiformis; A178L) (protein)
chain: MTTDLHLKSVEELAPLLASKSLSPVELTKAILDFAEESQPKINSYMAFYREEALARAKEVEQEILQGHYKGMYHGIPMALKDNLYFKDKITTMSSKIHKDFVSDYDATVVEKLRDAGVIFTGKLSMHEYAWGITNNNPHYGPVRNPWDLDKIPGGSSGGSGAAVAAGASVASLGTDTLGSIRIPSSACGIVGLKPTHGRVSKYGCYPLAWSLDHIGPMTKTVKDAAGLLEVIAGFDHQDPTCVNVPVDNYEKQLTGNIKDLVIGINEEYFFNNVDADVEKAVRASIQSLVDSGAKVEVVRIPSLQYAEWAELVTSLSEAAAIHHSDLQKRPQDFGDDIRLLFELGELPSAVDYLQAQQVRRQIKQEFTEIFNKVDVLISPTLPIVASTIGDDFAELNGQKVDLIDNIIRFTGPSNLTGLPALSVPCGFKGNLPIGLQIIGPAFKEGRILNVGYAVEQANPQRNRKPNIFANI
B7: EC hydrolase (ethyl carbamate hydrolase) (Lysinibacillus fusiformis) (protein)
chain: MTTDLHLKSVEELAPLLASKSLSPVELTKAILDFAEESQPKINSYMAFYREEALARAKEVEQEILQGHYKGMYHGIPMALKDNLYFKDKITTMSSKIHKDFVSDYDATVVEKLRDAGVIFTGKLSMHEYAWGITNNNPHYGPVRNPWDLDKIPGGSSGGSGAAVAAGASVASLGTDTAGSIRIPSSACGIVGLKPTHGRVSKYGCYPLAWSLDHIGPMTKTVKDAAGLLEVIAGFDHQDPTCVNVPVDNYEKQLTGNIKDLVIGINEEYFFNNVDADVEKAVRASIQSLVDSGAKVEVVRIPSLQYAEWAELVTSLSEAAAIHHSDLQKRPQDFGDDIRLLFELGELPSAVDYLQAQQVRRQIKQEFTEIFNKVDVLISPTLPIVASTIGDDFAELNGQKVDLIDNIIRFTGPSNLTGLPALSVPCGFKGNLPIGLQIIGPAFKEGRILNVGYAVEQANPQRNRKPNIFANI
B8: EC hydrolase (ethyl carbamate hydrolase) (Lysinibacillus fusiformis; S325N) (protein)
chain: MTTDLHLKSVEELAPLLASKSLSPVELTKAILDFAEESQPKINSYMAFYREEALARAKEVEQEILQGHYKGMYHGIPMALKDNLYFKDKITTMSSKIHKDFVSDYDATVVEKLRDAGVIFTGKLSMHEYAWGITNNNPHYGPVRNPWDLDKIPGGSSGGSGAAVAAGASVASLGTDTAGSIRIPSSACGIVGLKPTHGRVSKYGCYPLAWSLDHIGPMTKTVKDAAGLLEVIAGFDHQDPTCVNVPVDNYEKQLTGNIKDLVIGINEEYFFNNVDADVEKAVRASIQSLVDSGAKVEVVRIPSLQYAEWAELVTSLSEAAAIHHNDLQKRPQDFGDDIRLLFELGELPSAVDYLQAQQVRRQIKQEFTEIFNKVDVLISPTLPIVASTIGDDFAELNGQKVDLIDNIIRFTGPSNLTGLPALSVPCGFKGNLPIGLQIIGPAFKEGRILNVGYAVEQANPQRNRKPNIFANI

Substrate in this data set: CCOC(N)=O
Description: purified protein. In kind it is biochemical, Lysinibacillus fusiformis. The following applies: free enzyme, EC 0-300 mM, activity assay at 37 °C, pH not stated.
As usually defined, the Km is the concentration of substrate that gives half-maximal velocity. For the protein B1, the Km worked out at 28.2 ± 4.41 mM.
In the case of B2 it was 40.82 ± 3.56 mM.
For B3, the Michaelis constant (Km) amounted to 33.38 ± 5.67 mM.
For the protein B4, the Michaelis constant (Km) was 31.38 ± 5.61 mM.
Turning to B5, the Km was 33.27 ± 2.31 mM.
B6: the Km was 96.78 ± 6.09 mM.
In the case of B7, the Km is on record as 37.67 ± 3.55 mM.
With B8, the Km is listed as 45.52 ± 9.41 mM.
